In article PMC5283830, “Suppression of C9orf72 RNA repeat-induced neurotoxicity by the ALS-associated RNA-binding protein Zfp106”:

Assays:
[1] = biological target: T1, Zfp106 (Mus musculus, UniProt O88466 1-1888); test: competition; 30x molar excess vs r(GGGGCC)4 probe; EMSA: 40 mM Tris-Cl pH 8.0, 30 mM KCl, 1 mM MgCl2, 0.01% NP-40, 1 mM DTT, 5% glycerol, 10 ug/ml BSA, 30 min room temperature; pull-down: nuclear extract in 50 mM Tris pH 7.4, 150 mM NaCl, 1 mM EDTA, 0.5% NP-40, 4 h at 4 C; details: protein: recombinant, tags: N-terminal 3xFLAG-2xSTREP
T1 sequence (O88466 whole entry): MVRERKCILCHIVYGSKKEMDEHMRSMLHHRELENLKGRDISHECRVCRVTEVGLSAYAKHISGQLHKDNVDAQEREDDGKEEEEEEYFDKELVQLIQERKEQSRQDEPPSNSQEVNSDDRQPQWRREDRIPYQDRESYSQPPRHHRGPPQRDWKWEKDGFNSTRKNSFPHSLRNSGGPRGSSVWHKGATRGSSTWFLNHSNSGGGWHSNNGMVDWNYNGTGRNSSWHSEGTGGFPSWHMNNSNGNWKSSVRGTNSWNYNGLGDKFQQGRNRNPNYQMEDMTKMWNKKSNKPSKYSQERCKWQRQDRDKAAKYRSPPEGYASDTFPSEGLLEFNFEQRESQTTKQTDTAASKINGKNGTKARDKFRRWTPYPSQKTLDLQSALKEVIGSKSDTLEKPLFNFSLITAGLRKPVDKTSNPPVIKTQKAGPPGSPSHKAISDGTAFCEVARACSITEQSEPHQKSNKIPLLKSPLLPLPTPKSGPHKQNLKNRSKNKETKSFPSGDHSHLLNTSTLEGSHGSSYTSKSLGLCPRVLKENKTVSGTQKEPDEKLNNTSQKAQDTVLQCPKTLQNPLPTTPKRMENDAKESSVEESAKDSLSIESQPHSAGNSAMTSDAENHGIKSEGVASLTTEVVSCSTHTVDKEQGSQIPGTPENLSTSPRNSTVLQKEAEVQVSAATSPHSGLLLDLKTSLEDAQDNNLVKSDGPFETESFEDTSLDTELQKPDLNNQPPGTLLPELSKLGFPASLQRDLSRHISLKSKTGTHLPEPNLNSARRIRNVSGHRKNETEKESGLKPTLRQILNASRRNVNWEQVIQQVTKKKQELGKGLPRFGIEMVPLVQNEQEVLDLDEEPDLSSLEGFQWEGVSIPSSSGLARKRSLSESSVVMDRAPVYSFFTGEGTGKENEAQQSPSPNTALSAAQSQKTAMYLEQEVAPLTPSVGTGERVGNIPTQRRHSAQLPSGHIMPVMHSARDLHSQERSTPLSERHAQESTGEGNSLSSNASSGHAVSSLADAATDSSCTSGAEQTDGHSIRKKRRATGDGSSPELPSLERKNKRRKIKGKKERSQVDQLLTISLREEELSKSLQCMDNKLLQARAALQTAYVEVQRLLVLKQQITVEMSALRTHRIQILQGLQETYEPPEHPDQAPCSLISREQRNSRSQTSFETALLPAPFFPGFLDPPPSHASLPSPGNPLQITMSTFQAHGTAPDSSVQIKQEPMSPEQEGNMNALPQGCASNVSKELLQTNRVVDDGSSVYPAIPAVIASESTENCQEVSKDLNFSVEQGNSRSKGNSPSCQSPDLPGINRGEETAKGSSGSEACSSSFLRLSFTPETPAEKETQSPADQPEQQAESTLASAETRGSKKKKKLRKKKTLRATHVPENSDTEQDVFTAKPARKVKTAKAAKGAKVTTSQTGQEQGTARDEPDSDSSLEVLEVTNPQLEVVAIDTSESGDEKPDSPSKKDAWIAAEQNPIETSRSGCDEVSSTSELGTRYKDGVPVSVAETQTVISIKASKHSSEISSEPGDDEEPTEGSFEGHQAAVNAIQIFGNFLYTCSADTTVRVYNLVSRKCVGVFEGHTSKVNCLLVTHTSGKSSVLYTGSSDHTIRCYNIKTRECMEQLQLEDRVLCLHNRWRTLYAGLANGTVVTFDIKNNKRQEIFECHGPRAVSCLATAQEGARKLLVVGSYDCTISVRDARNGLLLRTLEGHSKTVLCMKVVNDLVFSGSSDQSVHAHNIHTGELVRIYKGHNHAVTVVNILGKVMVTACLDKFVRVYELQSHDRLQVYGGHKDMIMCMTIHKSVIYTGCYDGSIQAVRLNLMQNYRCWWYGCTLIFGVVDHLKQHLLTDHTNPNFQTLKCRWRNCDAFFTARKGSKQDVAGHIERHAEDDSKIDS

[2] = biological target: T2, MBNL1 (Mus musculus, UniProt G3X9Q0 1-381); test: EMSA; 1 mM Mg2+; competed by 30x unlabeled self; EMSA: 40 mM Tris-Cl pH 8.0, 30 mM KCl, 1 mM MgCl2, 0.01% NP-40, 1 mM DTT, 5% glycerol, 10 ug/ml BSA, 30 min room temperature; pull-down: nuclear extract in 50 mM Tris pH 7.4, 150 mM NaCl, 1 mM EDTA, 0.5% NP-40, 4 h at 4 C; details: protein: recombinant; tags: N-terminal 3xFLAG-2xSTREP; label: 5' 32P (probe)
T2 sequence: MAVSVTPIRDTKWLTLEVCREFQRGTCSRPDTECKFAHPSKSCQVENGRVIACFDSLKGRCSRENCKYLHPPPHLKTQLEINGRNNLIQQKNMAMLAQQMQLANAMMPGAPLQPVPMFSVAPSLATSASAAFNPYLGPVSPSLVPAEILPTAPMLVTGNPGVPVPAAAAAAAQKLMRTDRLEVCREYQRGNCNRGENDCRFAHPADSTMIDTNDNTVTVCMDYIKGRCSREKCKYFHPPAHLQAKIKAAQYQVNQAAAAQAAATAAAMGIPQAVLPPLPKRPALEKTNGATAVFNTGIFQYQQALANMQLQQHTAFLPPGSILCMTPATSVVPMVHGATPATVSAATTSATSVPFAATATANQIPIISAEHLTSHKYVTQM

[3] = biological target: T2, MBNL1; test: EMSA; 1 mM Mg2+; EMSA: 40 mM Tris-Cl pH 8.0, 30 mM KCl, 1 mM MgCl2, 0.01% NP-40, 1 mM DTT, 5% glycerol, 10 ug/ml BSA, 30 min room temperature; pull-down: nuclear extract in 50 mM Tris pH 7.4, 150 mM NaCl, 1 mM EDTA, 0.5% NP-40, 4 h at 4 C; details: protein: recombinant; tags: N-terminal 3xFLAG-2xSTREP; label: 5' 32P (probe)
[4] = biological target: T1, Zfp106; test: EMSA; 1 mM Mg2+; competed by 30x unlabeled self; EMSA: 40 mM Tris-Cl pH 8.0, 30 mM KCl, 1 mM MgCl2, 0.01% NP-40, 1 mM DTT, 5% glycerol, 10 ug/ml BSA, 30 min room temperature; pull-down: nuclear extract in 50 mM Tris pH 7.4, 150 mM NaCl, 1 mM EDTA, 0.5% NP-40, 4 h at 4 C; details: protein: recombinant; tags: N-terminal 3xFLAG-2xSTREP; label: 5' 32P (probe)

B1: mutated r(GGGGCC)4 (mut) (ssRNA)
RNA: GAGGCCGGGACCGAGACCGAGGCC
[1]
  binding result: no binding

B2: r(CUG)8 (ssRNA)
RNA: CUGCUGCUGCUGCUGCUGCUGCUG
[2]
  binding result: binds
[1]; label: 5' 32P (probe)
  binding result: no binding

B3: r(GGGGCC)4 (ssRNA)
RNA: GGGGCCGGGGCCGGGGCCGGGGCC
[3]
  binding result: no binding
[4]
  binding result: binds

B4: r(AAAACC)4 (ssRNA)
RNA: AAAACCAAAACCAAAACCAAAACC
[1]
  binding result: no binding
